Target: T1, 新型冠状病毒野生型Spike蛋白 (新型冠状病毒 (SARS-CoV-2) 野生型, UniProt P0DTC2 16-1213)
T1 construct: also called 野生型S蛋白
Test: ELISA, S protein coated at 2 μg/mL

B1: 抗体 克隆号9A5F6 23F1 (antibody, V domains shown)
VH: QVQLVESGGGVVQPGRSLRLSCAASGFTFSSYAMYWVRQAPGKGLECVAGISYDGSNKYYADSVKGRFTISRENSKNTLYLQMNSLISEDTAVYYCARAEWDYWGQGTLVTVSS
VL: SYELTQPSSVSVSPGQTARITCSGDVLAKKYARWFQQKPGQAPVLVIYKDSERPSGIPERFSGSSSGTTVTLTISGAQVEDEADYYCYSAADNNLGVFGGGTKL
B1: no binding (tested: 1 μg/mL).

B2: 抗体 克隆号7D7G3D4 (antibody, V domains shown)
VH: EVQLVESGGGLVQPGGSLRLSCAASGLTVSSNHMSWVRQAPGKGLEWVSIIYSGGSTYYADSVKGRFTISRDNSKNTLYLQMDSLRAEDTTVYYCARAQGGWELPGAGYYYFNGMDFWGQGTTVTVSS
VL: DIQMTQSPSSLSASVGDRVTITCRASQSISTYLNWYQQKPGKAPKLLIYAASNLQSGVPSRFSGSASGTDFTLTISSLQPEDFATYFCQQSYSTSFTFGPGTKVDIK
B2: no binding (tested: 1 μg/mL).

B3: 抗体 克隆号9A5D9 22G3 (antibody, V domains shown)
VH: EVQLVESGGGLVKPGGSLRLSCAASGFTFSSYSMNWVRQAPGKGLEWVSSISRSSSYIYYADSVMGRFTISRDNAKNSLYLQMNSLRADDTAVYYCARDRGSGNYYVDGLDIWGQGTMVTVSS
VL: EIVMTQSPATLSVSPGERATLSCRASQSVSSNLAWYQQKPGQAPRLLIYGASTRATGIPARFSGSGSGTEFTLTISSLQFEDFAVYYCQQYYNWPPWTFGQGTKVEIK
B3: no binding (tested: 1 μg/mL).
